{
  "source": "patent US20090092595A1",
  "about": "“Suppression of sPLA2-integrin binding for treating an inflammatory condition” (REGENTS OF THE UNIVERSITY OF CALIFORNIA, priority 2007, published 2009)",
  "molecules": {"B1": {"name": "wt sPLA2-IIA: Secretory phospholipase A2 group IIA, wild type, recombinant from bacteria BL21, refolded (protein)", "chain": "NLVNFHRMIKLTTGKEAALSYGFYGCHCGVGGRGSPKDATDRCCVTHDCCYKRLEKRGCGTKFLSYKFSNSGSRITCAKQDSCRSQLCECDKAAATCFARNKTTYNKKYQYYSNKHCRGSTPRC", "modifications": "left off: small tags and cut ends"}},
  "target": "T1, integrin αvβ3 on β3-CHO cells (UniProt A0A9J7JSN3+P05106)",
  "T1 construct": "expressed in transfected cells; host or cells: CHO",
  "T1 sequence (P05106 27-788)": "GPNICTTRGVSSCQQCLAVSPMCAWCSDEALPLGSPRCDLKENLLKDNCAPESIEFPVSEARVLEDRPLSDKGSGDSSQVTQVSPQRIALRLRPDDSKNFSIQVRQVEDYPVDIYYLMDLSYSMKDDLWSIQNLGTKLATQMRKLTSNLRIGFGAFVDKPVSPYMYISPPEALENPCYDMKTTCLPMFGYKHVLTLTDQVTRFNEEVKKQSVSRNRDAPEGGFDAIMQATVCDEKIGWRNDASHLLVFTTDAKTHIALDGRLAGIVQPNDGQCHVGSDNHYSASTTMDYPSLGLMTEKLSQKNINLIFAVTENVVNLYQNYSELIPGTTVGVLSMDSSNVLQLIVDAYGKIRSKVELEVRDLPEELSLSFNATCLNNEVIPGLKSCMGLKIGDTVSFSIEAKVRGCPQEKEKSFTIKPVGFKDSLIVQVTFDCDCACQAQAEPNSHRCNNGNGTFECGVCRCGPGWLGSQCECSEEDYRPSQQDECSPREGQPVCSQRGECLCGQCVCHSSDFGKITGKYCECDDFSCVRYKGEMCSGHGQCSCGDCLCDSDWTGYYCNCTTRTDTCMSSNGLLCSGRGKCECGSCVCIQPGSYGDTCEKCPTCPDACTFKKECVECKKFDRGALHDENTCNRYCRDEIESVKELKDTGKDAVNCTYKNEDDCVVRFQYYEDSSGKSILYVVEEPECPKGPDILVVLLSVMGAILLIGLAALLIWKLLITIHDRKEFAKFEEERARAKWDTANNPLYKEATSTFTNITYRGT",
  "T1 sequence (A0A9J7JSN3 31-1043)": "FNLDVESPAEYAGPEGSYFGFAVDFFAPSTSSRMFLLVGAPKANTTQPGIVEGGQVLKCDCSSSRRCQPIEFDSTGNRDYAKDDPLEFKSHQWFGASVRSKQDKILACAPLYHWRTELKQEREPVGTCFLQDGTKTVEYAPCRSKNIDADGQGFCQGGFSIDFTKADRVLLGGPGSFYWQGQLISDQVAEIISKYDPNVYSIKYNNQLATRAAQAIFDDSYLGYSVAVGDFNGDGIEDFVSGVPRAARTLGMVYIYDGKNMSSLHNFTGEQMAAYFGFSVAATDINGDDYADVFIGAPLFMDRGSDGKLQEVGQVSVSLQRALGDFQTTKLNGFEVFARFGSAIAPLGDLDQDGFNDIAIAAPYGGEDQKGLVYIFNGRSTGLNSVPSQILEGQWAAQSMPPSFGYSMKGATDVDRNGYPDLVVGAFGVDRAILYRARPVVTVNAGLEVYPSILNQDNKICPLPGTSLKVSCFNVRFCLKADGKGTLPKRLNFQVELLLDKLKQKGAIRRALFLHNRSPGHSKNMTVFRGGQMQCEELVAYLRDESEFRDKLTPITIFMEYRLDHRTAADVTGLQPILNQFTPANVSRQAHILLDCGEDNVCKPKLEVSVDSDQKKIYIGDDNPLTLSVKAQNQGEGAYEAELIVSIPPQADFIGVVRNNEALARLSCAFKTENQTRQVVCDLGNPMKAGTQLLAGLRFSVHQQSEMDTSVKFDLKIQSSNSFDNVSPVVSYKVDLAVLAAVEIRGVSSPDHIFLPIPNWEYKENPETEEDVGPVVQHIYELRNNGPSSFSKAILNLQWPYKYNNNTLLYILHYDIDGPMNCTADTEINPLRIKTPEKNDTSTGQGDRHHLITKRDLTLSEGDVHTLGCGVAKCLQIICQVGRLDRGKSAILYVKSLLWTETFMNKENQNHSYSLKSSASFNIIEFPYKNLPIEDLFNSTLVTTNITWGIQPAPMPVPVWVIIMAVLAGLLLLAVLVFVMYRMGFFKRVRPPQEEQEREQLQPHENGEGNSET",
  "experiment": "Adhesion of cells expressing recombinant αvβ3 (β3-CHO, β3-745) to immobilized sPLA2-IIA",
  "format": "cell-based, human",
  "conditions": "compared with mock-transfected cells",
  "excerpt": "FIG. 1. sPLA2-IIA binding to integrin αvβ3. a) Cell adhesion to sPLA2-IIA in an αvβ3- and proteoglycans-dependent manner. Wells of a 96-well microtiter plate were coated with sPLA2-IIA at indicated coating concentrations. Remaining protein-binding sites were blocked with BSA. CHO cells expressing recombinant αvβ3 (β3-CHO), mock-transfected CHO cells, proteoglycans-deficient CHO cell variant (pgs745), expressing recombinant αvβ3 (β3-745), and mock-transfected pgs745 cells (10^5 cells per well in 100 μl Tyrodes-HEPES with 1 mM MgCl2) were added to the wells. After incubating for 1 h at 37° C., unbound cells were removed by gentle rinsing and bound cells were quantified using endogenous phosphatase activity (Prater, C. A. et al., J. Cell Biol., 112:1031-1040 (1991)). Data is shown as means+/−SEM of triplicate experiments. b) Effect of anti-(33 mAb 7E3 on adhesion of β3-CHO cells to immobilized sPLA2-IIA. […] Bound FITC (FL1) and PE (FL2) were quantified in flow cytometry. […] Bound αvβ3 was detected using peroxidase-conjugated anti-6His antibody. Bound peroxidase activity was measured. […]",
  "data": [
    {"molecule": "B1", "values": [
      {"measurement": "adhesion of β3-CHO and β3-745 cells to immobilized sPLA2-IIA", "value": "much higher level than mock-transfected CHO or 745 cells"}
    ]}
  ]
}
